# Tested on: Escherichia coli TOP10
# Assay: shrunken log2 fold change of peptide-encoding DNA abundance (4.5 h post-induction vs induction); higher = less antimicrobial activity (less host growth inhibition)
# Conditions: time post-induction: 4.5 h; library: site-saturation at positions 5, 18, 19, 20
# 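Note: peptides expressed intracellularly from a pBAD plasmid library in pooled LB shake-flask culture, induced with 0.3% L-arabinose, DNA abundance read by NGS, three biological replicates, DESeq2 with apeglm shrinkage.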
row,Sequence,shrunken log2 fold change
1,RRIRARPPRLPRPRPRPEPGPRP,0.98
2,RRIRGRPPRLPRPRPRPWTSPRP,0.0439
3,RRIRSRPPRLPRPRPRPRYMPRP,-0.664
4,RRIRKRPPRLPRPRPRPVDRPRP,0.248
5,RRIRFRPPRLPRPRPRPATKPRP,0.217
6,RRIRNRPPRLPRPRPRPPQAPRP,0.0708
7,RRIRHRPPRLPRPRPRPDKAPRP,-0.468
8,RRIRTRPPRLPRPRPRPPSFPRP,0.264
9,RRIRMRPPRLPRPRPRPKKAPRP,0.0459
10,RRIRWRPPRLPRPRPRPKFHPRP,-0.249
11,RRIRKRPPRLPRPRPRPRQNPRP,0.586
12,RRIRVRPPRLPRPRPRPKFWPRP,0.48
13,RRIRNRPPRLPRPRPRPLVWPRP,0.124
14,RRIRSRPPRLPRPRPRPSMSPRP,0.0307
15,RRIRIRPPRLPRPRPRPGQNPRP,-0.0607
16,RRIRARPPRLPRPRPRPINTPRP,-0.631
17,RRIRPRPPRLPRPRPRPIPDPRP,0.0469
18,RRIRPRPPRLPRPRPRPMNMPRP,-0.668
19,RRIRNRPPRLPRPRPRPRCQPRP,0.297
20,RRIRQRPPRLPRPRPRPIVEPRP,0.0141
21,RRIRYRPPRLPRPRPRPRYTPRP,-0.0817
22,RRIRWRPPRLPRPRPRPRTLPRP,0.565
23,RRIRTRPPRLPRPRPRPFGRPRP,0.0376
24,RRIRMRPPRLPRPRPRPMANPRP,0.356
25,RRIRQRPPRLPRPRPRPANSPRP,-0.0568

row,Sequence,shrunken log2 fold change
1,RRIRARPPRLPRPRPRPFMNPRP,-0.0629
2,RRIRDRPPRLPRPRPRPIQSPRP,-0.0949
3,RRIRMRPPRLPRPRPRPRMPPRP,0.771
4,RRIRGRPPRLPRPRPRPEKWPRP,-0.0809
5,RRIRYRPPRLPRPRPRPPGPPRP,0.455
6,RRIRTRPPRLPRPRPRPTPRPRP,0.674
7,RRIRFRPPRLPRPRPRPRGCPRP,0.433
8,RRIRVRPPRLPRPRPRPSEIPRP,-0.623
9,RRIRVRPPRLPRPRPRPDYGPRP,-0.133
10,RRIRRRPPRLPRPRPRPDKCPRP,-0.0562
11,RRIRWRPPRLPRPRPRPYQKPRP,-0.0398
12,RRIRVRPPRLPRPRPRPELKPRP,-0.341
13,RRIRLRPPRLPRPRPRPCTHPRP,-0.0381
14,RRIRMRPPRLPRPRPRPYYNPRP,-0.709
15,RRIRERPPRLPRPRPRPYPRPRP,-0.00133
16,RRIRSRPPRLPRPRPRPIVIPRP,-0.872
17,RRIRTRPPRLPRPRPRPHTNPRP,0.0124
18,RRIRVRPPRLPRPRPRPLCTPRP,-0.0347
19,RRIRQRPPRLPRPRPRPPIMPRP,-0.344
20,RRIRGRPPRLPRPRPRPLECPRP,0.447
21,RRIRWRPPRLPRPRPRPVCVPRP,0.193
22,RRIRNRPPRLPRPRPRPAGLPRP,-0.118
23,RRIRPRPPRLPRPRPRPLRVPRP,0.615
24,RRIRRRPPRLPRPRPRPSFEPRP,0.234
25,RRIRFRPPRLPRPRPRPGRTPRP,0.301

row,Sequence,shrunken log2 fold change
1,RRIRHRPPRLPRPRPRPPLVPRP,0.0953
2,RRIRGRPPRLPRPRPRPCPQPRP,0.654
3,RRIRQRPPRLPRPRPRPNPSPRP,-0.042
4,RRIRDRPPRLPRPRPRPIVEPRP,0.0518
5,RRIRPRPPRLPRPRPRPWGFPRP,-0.129
6,RRIRIRPPRLPRPRPRPGVMPRP,-0.346
7,RRIRFRPPRLPRPRPRPCRKPRP,0.0312
8,RRIRWRPPRLPRPRPRPCALPRP,-0.321
9,RRIRRRPPRLPRPRPRPTPRPRP,2.37
10,RRIRQRPPRLPRPRPRPKCIPRP,-0.0337
11,RRIRPRPPRLPRPRPRPMDTPRP,-0.276
12,RRIRHRPPRLPRPRPRPNKSPRP,-0.252
13,RRIRNRPPRLPRPRPRPFMNPRP,-0.195
14,RRIRLRPPRLPRPRPRPELRPRP,0.214
15,RRIRVRPPRLPRPRPRPCPDPRP,-0.0269
16,RRIRMRPPRLPRPRPRPTSMPRP,0.0931
17,RRIRDRPPRLPRPRPRPHRKPRP,0.00895
18,RRIRYRPPRLPRPRPRPETRPRP,0.0147
19,RRIRCRPPRLPRPRPRPNCNPRP,-0.375
20,RRIRDRPPRLPRPRPRPLWVPRP,-0.0158
21,RRIRFRPPRLPRPRPRPMSIPRP,-0.354
22,RRIRYRPPRLPRPRPRPLHTPRP,-0.169
23,RRIRFRPPRLPRPRPRPKRNPRP,0.203
24,RRIRTRPPRLPRPRPRPFWRPRP,0.112
25,RRIRRRPPRLPRPRPRPCSYPRP,-0.19

row,Sequence,shrunken log2 fold change
1,RRIRPRPPRLPRPRPRPTHAPRP,0.131
2,RRIRPRPPRLPRPRPRPRFAPRP,0.323
3,RRIRTRPPRLPRPRPRPNEQPRP,-0.0135
4,RRIRHRPPRLPRPRPRPHREPRP,0.00911
5,RRIRARPPRLPRPRPRPQTQPRP,0.628
6,RRIRFRPPRLPRPRPRPKFYPRP,-0.308
7,RRIRVRPPRLPRPRPRPMYQPRP,-0.342
8,RRIRGRPPRLPRPRPRPSVDPRP,0.861
9,RRIRIRPPRLPRPRPRPVQLPRP,-0.0585
10,RRIRNRPPRLPRPRPRPDKGPRP,0.00408
11,RRIRFRPPRLPRPRPRPLCPPRP,0.016
12,RRIRWRPPRLPRPRPRPNAFPRP,0.0579
13,RRIRFRPPRLPRPRPRPKMLPRP,-0.0622
14,RRIRERPPRLPRPRPRPKIRPRP,-0.121
15,RRIRFRPPRLPRPRPRPKSHPRP,-0.506
16,RRIRGRPPRLPRPRPRPCIIPRP,0.191
17,RRIRIRPPRLPRPRPRPCCLPRP,-0.478
18,RRIRMRPPRLPRPRPRPFAIPRP,-0.0351
19,RRIRQRPPRLPRPRPRPEMTPRP,0.0231
20,RRIRVRPPRLPRPRPRPVKPPRP,0.247
21,RRIRLRPPRLPRPRPRPDSRPRP,0.0292
22,RRIRRRPPRLPRPRPRPMNCPRP,-0.0277
23,RRIRLRPPRLPRPRPRPDPTPRP,0.0311
24,RRIRRRPPRLPRPRPRPARAPRP,0.523
25,RRIRNRPPRLPRPRPRPDKQPRP,0.00349

row,Sequence,shrunken log2 fold change
1,RRIRVRPPRLPRPRPRPELNPRP,-0.0839
2,RRIRVRPPRLPRPRPRPSGNPRP,-0.225
3,RRIRYRPPRLPRPRPRPKTRPRP,-0.142
4,RRIRARPPRLPRPRPRPGLWPRP,1.04
5,RRIRCRPPRLPRPRPRPSKDPRP,-0.361
6,RRIRCRPPRLPRPRPRPNSMPRP,-0.745
7,RRIRIRPPRLPRPRPRPLVGPRP,-0.0442
8,RRIRERPPRLPRPRPRPYFEPRP,-0.696
9,RRIRFRPPRLPRPRPRPDHEPRP,0.193
10,RRIRNRPPRLPRPRPRPYTTPRP,-0.83
11,RRIRCRPPRLPRPRPRPHELPRP,-0.336
12,RRIRNRPPRLPRPRPRPLCNPRP,-0.324
13,RRIRQRPPRLPRPRPRPWEAPRP,-0.00204
14,RRIRCRPPRLPRPRPRPTWHPRP,0.00453
15,RRIRSRPPRLPRPRPRPKQNPRP,0.0535
16,RRIRVRPPRLPRPRPRPRTWPRP,0.0366
17,RRIRRRPPRLPRPRPRPPHFPRP,0.897
18,RRIRDRPPRLPRPRPRPQAPPRP,-0.0631
19,RRIRHRPPRLPRPRPRPKANPRP,0.174
20,RRIRGRPPRLPRPRPRPKSAPRP,0.781
21,RRIRTRPPRLPRPRPRPSVYPRP,-0.389
22,RRIRDRPPRLPRPRPRPVVYPRP,-0.349
23,RRIRLRPPRLPRPRPRPKANPRP,0.0584
24,RRIRARPPRLPRPRPRPYQAPRP,-0.0488
25,RRIRWRPPRLPRPRPRPRGVPRP,0.756

row,Sequence,shrunken log2 fold change
1,RRIRNRPPRLPRPRPRPSRPPRP,0.112
2,RRIRRRPPRLPRPRPRPTQSPRP,0.804
3,RRIRVRPPRLPRPRPRPGQHPRP,0.0795
4,RRIRMRPPRLPRPRPRPIFEPRP,0.166
5,RRIRGRPPRLPRPRPRPRWWPRP,0.667
6,RRIRWRPPRLPRPRPRPCTLPRP,-0.842
7,RRIRWRPPRLPRPRPRPDCTPRP,0.372
8,RRIRIRPPRLPRPRPRPLRIPRP,-0.346
9,RRIRGRPPRLPRPRPRPTSYPRP,0.105
10,RRIRSRPPRLPRPRPRPMCLPRP,0.038
11,RRIRMRPPRLPRPRPRPWAWPRP,-0.0978
12,RRIRDRPPRLPRPRPRPDSSPRP,0.109
13,RRIRFRPPRLPRPRPRPIYQPRP,-0.21
14,RRIRFRPPRLPRPRPRPPWVPRP,0.401
15,RRIRGRPPRLPRPRPRPPYYPRP,-0.0196
16,RRIRERPPRLPRPRPRPAGPPRP,-0.0342
17,RRIRRRPPRLPRPRPRPEVDPRP,0.0409
18,RRIRTRPPRLPRPRPRPQTGPRP,-0.128
19,RRIRERPPRLPRPRPRPWCTPRP,-0.391
20,RRIRFRPPRLPRPRPRPYFNPRP,-1.04
21,RRIRCRPPRLPRPRPRPGRSPRP,0.0654
22,RRIRHRPPRLPRPRPRPYAHPRP,-0.702
23,RRIRLRPPRLPRPRPRPRQAPRP,-0.00965
24,RRIRARPPRLPRPRPRPLPMPRP,0.306
25,RRIRYRPPRLPRPRPRPHVLPRP,-0.0311

# — the supplement of paper PMC9112550, “Optimization of the antimicrobial peptide Bac7 by deep mutational scanning” (BMC Biology, 2022)
